Reference: patent US20050069951A1 (KARO BIO, published 2005)
Where no end group is shown, it is not given here. The star is where a group is joined. Biotin = O=C1N[C@H]2[C@H](CS[C@H]2CCCCC(=O)*)N1

T1: E. coli proline tRNA synthetase (E. coli, UniProt P16659 1-572)
T1 construct: also called ProRS; E. coli ProRS
T1 sequence: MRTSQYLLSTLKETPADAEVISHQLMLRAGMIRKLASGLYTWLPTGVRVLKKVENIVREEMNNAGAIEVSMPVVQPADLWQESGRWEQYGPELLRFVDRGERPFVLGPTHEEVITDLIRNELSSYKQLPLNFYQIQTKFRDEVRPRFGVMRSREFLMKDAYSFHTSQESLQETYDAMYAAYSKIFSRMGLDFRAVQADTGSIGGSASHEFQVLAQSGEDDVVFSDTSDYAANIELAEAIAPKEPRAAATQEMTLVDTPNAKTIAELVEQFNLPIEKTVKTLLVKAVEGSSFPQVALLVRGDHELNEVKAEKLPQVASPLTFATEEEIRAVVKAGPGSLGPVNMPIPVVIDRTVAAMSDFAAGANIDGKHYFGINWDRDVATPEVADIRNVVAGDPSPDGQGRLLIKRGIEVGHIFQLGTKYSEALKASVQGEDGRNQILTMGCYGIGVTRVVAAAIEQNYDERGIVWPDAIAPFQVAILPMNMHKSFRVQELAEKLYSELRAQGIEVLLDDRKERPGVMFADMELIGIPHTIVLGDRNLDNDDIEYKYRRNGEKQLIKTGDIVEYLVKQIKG

T2: carboxypeptidase B from pig pancreas (pig, UniProt P09955 111-416)
T2 sequence (looked up): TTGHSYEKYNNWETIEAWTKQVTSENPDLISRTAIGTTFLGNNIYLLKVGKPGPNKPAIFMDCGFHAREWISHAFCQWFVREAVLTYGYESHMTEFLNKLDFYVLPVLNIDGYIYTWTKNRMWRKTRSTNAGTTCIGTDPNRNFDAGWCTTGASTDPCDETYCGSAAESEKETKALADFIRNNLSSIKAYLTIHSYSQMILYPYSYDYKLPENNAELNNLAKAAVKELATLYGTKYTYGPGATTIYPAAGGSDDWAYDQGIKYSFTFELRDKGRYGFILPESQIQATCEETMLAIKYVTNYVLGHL

T3: Yeast alcohol dehydrogenase (yeast, UniProt P00330 2-348)
T3 sequence (looked up): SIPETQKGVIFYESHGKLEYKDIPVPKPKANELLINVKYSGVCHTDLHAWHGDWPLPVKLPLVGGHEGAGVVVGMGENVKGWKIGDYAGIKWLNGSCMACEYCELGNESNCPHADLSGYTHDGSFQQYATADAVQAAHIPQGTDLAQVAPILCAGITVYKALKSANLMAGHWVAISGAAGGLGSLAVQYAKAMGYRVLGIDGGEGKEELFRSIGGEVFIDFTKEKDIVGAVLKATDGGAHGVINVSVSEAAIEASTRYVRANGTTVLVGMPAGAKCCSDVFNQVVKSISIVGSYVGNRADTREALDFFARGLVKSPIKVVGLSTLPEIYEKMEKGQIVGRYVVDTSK

T4: biotinylated ProRS (E. coli, UniProt P16659 1-572, biotinylated with Sulfo NHS-LC-LC biotin, sites not stated)
T4 construct: also called biotinylated E. coli ProRS
T4 sequence: T1 sequence

T5: Agrobacterium faecalis beta-glucosidase (Agrobacterium faecalis, UniProt P12614 1-459, biotinylated with Sulfo NHS-LC-LC biotin, sites not stated)
T5 construct: captured on streptavidin beads or plates; also called β-glucosidase
T5 sequence: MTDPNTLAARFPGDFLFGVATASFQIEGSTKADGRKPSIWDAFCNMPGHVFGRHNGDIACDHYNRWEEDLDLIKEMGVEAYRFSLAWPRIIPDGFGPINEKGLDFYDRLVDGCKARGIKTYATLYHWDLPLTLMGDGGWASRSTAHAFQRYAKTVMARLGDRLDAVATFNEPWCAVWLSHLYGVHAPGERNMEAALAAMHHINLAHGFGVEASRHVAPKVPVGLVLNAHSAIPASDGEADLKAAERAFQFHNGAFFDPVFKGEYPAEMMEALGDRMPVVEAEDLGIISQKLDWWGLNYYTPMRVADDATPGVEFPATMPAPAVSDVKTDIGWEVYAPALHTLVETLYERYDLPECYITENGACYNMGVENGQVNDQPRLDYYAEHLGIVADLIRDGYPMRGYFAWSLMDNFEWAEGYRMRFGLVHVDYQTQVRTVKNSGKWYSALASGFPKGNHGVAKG

B1: biotinylated UL44 surrogate ligand peptide (peptide)
peptide: Biotin-SGSGEHVCSWGWGRC
modifications: not fully specified (bridges); cysteine pairing not given here
notes: synthetic; pre-complexed with streptavidin alkaline phosphatase (SA-AP) in the ELSA; also called UL44 BioKey
B2: ProRS-binding phage peptide SRVCAIWPDLDGCSR (X10C library) (peptide)
peptide: SRVCAIWPDLDGCSR
notes: on M13 phage; SR linkers included as printed; also called most often isolated phage
B3: non-biotinylated ProRS peptide (peptide)
peptide: VCAIWPDLDGC
notes: also called non-biotinylated ProRS surrogate ligand

Each binder was assayed against T1, E. coli proline tRNA synthetase (assay: ELSA, immobilized ProRS).

Binder | binding result
B1 | no binding

These binders were tested against T2, carboxypeptidase B from pig pancreas (assay: cross reactivity phage ELISA).

Binder | fold ELISA signal on the specific target vs any other targets tested [fold]
SRLLEVSPGWWQMSR (on M13 phage) [phage-displayed peptide SRLLEVSPGWWQMSR (P library)] | ≥ 10
SSFRELKPGWWSYSR (on M13 phage) [phage-displayed peptide SSFRELKPGWWSYSR (P library)] | ≥ 10
SSWGDYFNWRDGLSR (on M13 phage) [phage-displayed peptide SSWGDYFNWRDGLSR (N library)] | ≥ 10

Each binder was assayed against T3, Yeast alcohol dehydrogenase (assay: cross reactivity phage ELISA).

Binder | fold ELISA signal on the specific target vs any other targets tested [fold]
SRQVEVFKPWPVYSR (on M13 phage; group 2) [phage-displayed peptide SRQVEVFKPWPVYSR (K library)] | ≥ 10
SSSFKPWPIYLGSSR (on M13 phage; group 2) [phage-displayed peptide SSSFKPWPIYLGSSR (P library)] | ≥ 10
SVSVGMKPSPRP (on M13 phage) [phage-displayed peptide SVSVGMKPSPRP (PHD12 library)] | ≥ 10
SSNYWWQSPVLSRHSR (on M13 phage) [phage-displayed peptide SSNYWWQSPVLSRHSR (CWL library)] | ≥ 10
SSWQGNVLLGNWISR (on M13 phage) [phage-displayed peptide SSWQGNVLLGNWISR (L library)] | ≥ 10
SSLLNESRLQWSTSR (on M13 phage) [phage-displayed peptide SSLLNESRLQWSTSR (R library)] | ≥ 10

Each binder was assayed against T4, biotinylated ProRS (assay: phage ELISA, biotinylated target).

Binder | binding result
SRDWGFWDWGVDRSR (on M13 phage) [phage-displayed peptide SRDWGFWDWGVDRSR (D library)] | binds
SRDWGFWRLPESMASR (on M13 phage) [phage-displayed peptide SRDWGFWRLPESMASR (CWL library)] | binds
SREWHFWRDYNPTSR (on M13 phage) [phage-displayed peptide SREWHFWRDYNPTSR (R library)] | binds
SSERGSGDRGEKGSR (on M13 phage) [phage-displayed peptide SSERGSGDRGEKGSR (D library)] | binds

The binders below were run against T1, E. coli proline tRNA synthetase (assay: ELSA, immobilized targets (legend of FIG. 17)).

Binder | binding result
LYSWPDEQYERP (also: biotinylated, position not given here, also called TyrRS1B; TyrRS BioKey) [biotinylated peptide TyrRS1] | no binding

These binders were tested against T5, Agrobacterium faecalis beta-glucosidase (assay: phage ELISA, biotinylated target on streptavidin plate).

Binder | binding result
SSQTDWRKIFQSLSR (on M13 phage; group 1) [phage-displayed peptide SSQTDWRKIFQSLSR (K library)] | binds
SSSTDWLNVWRQLSR (on M13 phage; group 1) [phage-displayed peptide SSSTDWLNVWRQLSR (N library)] | binds
SSATDWGRVYSILSR (on M13 phage; group 1) [phage-displayed peptide SSATDWGRVYSILSR (R library)] | binds
SSASYAPWPIYFASR (on M13 phage; group 2) [phage-displayed peptide SSASYAPWPIYFASR (W library)] | binds
SSGAFKPWPVYSFSR (on M13 phage; group 2) [phage-displayed peptide SSGAFKPWPVYSFSR (W library)] | binds
SSEPFSVWPIYKHSR (on M13 phage; group 2) [phage-displayed peptide SSEPFSVWPIYKHSR (W library)] | binds
SSSVPFAPWPVYASR (on M13 phage; group 2) [phage-displayed peptide SSSVPFAPWPVYASR (P library)] | binds
SSTSLPFNRWPIYSR (on M13 phage; group 2) [phage-displayed peptide SSTSLPFNRWPIYSR (N library)] | binds

The binders below were run against T1, E. coli proline tRNA synthetase (assay: phage ELISA on immobilized ProRS and a variety of proteins).

Binder | binding result
B2 | binds
SRWCSLRPQDEGCSR (on M13 phage) [ProRS-binding phage peptide SRWCSLRPQDEGCSR (X10C library)] | binds
SRWCELWSQDIGCSR (on M13 phage) [ProRS-binding phage peptide SRWCELWSQDIGCSR (X10C library)] | binds
SRWCELWPEGSGCSR (on M13 phage) [ProRS-binding phage peptide SRWCELWPEGSGCSR (P library)] | binds
SRLCEVWPQTAGCSR (on M13 phage) [ProRS-binding phage peptide SRLCEVWPQTAGCSR (X10C library)] | binds
SRWCDIWPDTGSCSR (on M13 phage) [ProRS-binding phage peptide SRWCDIWPDTGSCSR (P library)] | binds
SRLCDIMPQTVGCSR (on M13 phage) [ProRS-binding phage peptide SRLCDIMPQTVGCSR (P library)] | binds
SRWCEVWPDKRWCSR (on M13 phage) [ProRS-binding phage peptide SRWCEVWPDKRWCSR (P library)] | binds

The binders below were run against T6, GST (UniProt P08515 1-218 = GST) (assay: ELSA: biotinylated peptide pre-complexed with SA-AP, immobilized target).
T6 construct: also called glutathione-S-transferase
T6 sequence (P08515 whole entry): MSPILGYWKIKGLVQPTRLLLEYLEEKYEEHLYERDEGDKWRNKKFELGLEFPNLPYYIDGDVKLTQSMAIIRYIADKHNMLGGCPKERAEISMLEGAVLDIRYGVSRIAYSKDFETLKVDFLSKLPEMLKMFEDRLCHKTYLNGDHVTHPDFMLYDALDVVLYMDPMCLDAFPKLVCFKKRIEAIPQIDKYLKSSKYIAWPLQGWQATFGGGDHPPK
Method: (§1) Target protein was immobilized in microtiter wells by incubating 0.5-2.0 μg per well in 100 μl of 0.1 M NaHCO₃ overnight at 4° C. […] During the 1 hour blocking period, the SA-AP:surrogate ligand conjugate was prepared by mixing 2 μg SA-AP and 50 pmol biotinylated surrogate ligand for each well of target protein. (This corresponds to a 1:1 ratio of biotinylated peptide to biotin binding sites.) The mixture was incubated at room temperature for 15-20 minutes and then diluted with Tris-buffered saline-Tween-20 (TBST) 10 mM Tris-HCl, pH 8.0, 150 mM NaCl, 0.05% Tween-20 such that there was 100 μl of conjugate per well.
(§2) After blocking, the wells were washed once with 200 μl TBST. The surrogate ligand:SA-AP conjugate was then added (100 μl/well) and incubated at room temperature for 2 hours. […] The assay was developed by adding 100 μl of pNPP and incubating at room temperature for 5-10 minutes. The absorbance was read at 405 nm.

Binder | binding result
B1 | no binding

These binders were tested against streptavidin (UniProt P22629 37-163, limits assumed) in the same assay as above.
Chain of streptavidin (P22629 37-163 limits assumed): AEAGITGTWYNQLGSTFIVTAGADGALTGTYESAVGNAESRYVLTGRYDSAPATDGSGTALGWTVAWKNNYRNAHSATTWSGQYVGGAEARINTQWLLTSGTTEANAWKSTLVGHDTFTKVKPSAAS
Method: as §1, §2

Binder | binding result
B1 | no binding

What follows are binders tested against T1, E. coli proline tRNA synthetase (assay: tRNA charging assay (enzyme inhibition), competitive in respect to proline).

Binder | Ki [µM]
B3 | > 500
